Test results: patent US12291578B2, “Anti-matrix metalloproteinase 7 (MMP-7) inhibitory antibody and uses thereof” (Yeda Research and Development Co. Ltd., priority 2019, dated 2025)
Entries after “also recorded” stand apart in the source; their conditions may differ.

What was measured:
[1] = target: T1, activated MMP-7 recombinant enzyme (Homo sapiens, UniProt P09237); test: Dot blot, activated enzyme; type: binding; conditions: different concentrations of enzyme
T1 sequence (P09237 95-267): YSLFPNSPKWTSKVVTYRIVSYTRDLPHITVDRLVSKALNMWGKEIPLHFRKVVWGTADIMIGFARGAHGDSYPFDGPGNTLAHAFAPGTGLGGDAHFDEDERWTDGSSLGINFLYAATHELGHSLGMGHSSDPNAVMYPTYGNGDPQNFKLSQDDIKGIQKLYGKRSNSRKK
Description: (§1) A dot blot was performed by immobilizing 1, 1.5 and 2 μg zymogen and activated MMP-7 recombinant enzyme on nitrocellulose membrane pre wetted with TBST using a vacuum based manifold 96 well dot-blot system (GE 10447900 Minifold dot blot). The blocking was performed for 1 hour at room temperature with 3% BSA in TBST. The membrane was then probed for binding by antibody eluted in the earlier step by incubating overnight. The anti MMP-7 mAb used was at 2 ug/ml concentration in TBST. The membrane after 3 washes in TBST was incubated with goat anti mouse HRP antibody and developed using ECL to determine the selectivity of binding towards catalytic form only.

[2] = tested on: RIP1-Tag2 mice serum (circulating MMP); test: Dot blot with RIP1-Tag2 mice serum; type: binding, mouse; conditions: serum of RIP1-Tag2 mice with late stage insulinomas, 335 times the protein of pure MMP-7 control
Description: as §1
Serum isolated from RIP1-Tag2 mice with late stage insulinomas were used to determine if anti MMP-7 mAb would be bound and removed by circulating enzyme. […] The total serum protein loaded for this experiment was 335 times the protein concentration used for pure MMP-7 catalytic control.

MMP-7 zymogen = target: T2, MMP-7 zymogen (Homo sapiens, UniProt P09237); test: Dot blot, zymogen; type: binding
T2 sequence (P09237 18-267 limits assumed): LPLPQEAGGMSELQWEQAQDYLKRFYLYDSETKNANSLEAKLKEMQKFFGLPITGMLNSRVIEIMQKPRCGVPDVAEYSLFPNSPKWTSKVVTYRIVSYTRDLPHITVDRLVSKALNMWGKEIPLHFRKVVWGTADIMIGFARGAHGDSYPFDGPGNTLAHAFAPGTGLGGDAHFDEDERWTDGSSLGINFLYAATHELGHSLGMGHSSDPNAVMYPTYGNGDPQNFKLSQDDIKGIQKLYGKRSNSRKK
Description: as §1

panel of other MMPs = test: ELISA binding, panel of other MMPs
Description: MMP-7 Elisa binding assay: A 96-well plate (Nunc) was coated with MMP at […]. After coating, the plate was incubated with the GSM-192 at 25° C. for 1 h. The bound Fab fragment/full length was detected using a goat anti-Fab/anti-mouse antibody followed by peroxidase-conjugated bovine anti-goat antibody according to standard procedures. A four-parametric sigmoidal curve-fitting analysis was used to calculate the half-maximal effective concentration.

B1: GSM-192: monoclonal antibody to MMP-7 binding the catalytic domain, not the zymogen; VL SEQ ID NO: 1, VH SEQ ID NO: 2 (antibody, V domains shown)
VH: EVQLQQSGPELVKPGASVKIPCKASGYTFTDYNMDWMKQSHGKSLEWIGHINPNNGGTFYNQKFKDKATFIVDKSSNTAYMELRSLTSEDTAVYFCARGGGLRRGPFAYWGQGTLVTVS
VL: DIVTQSPASLAVSLGQRATISCRASESFDSYGNTFVHWYQQKPGQPPKLLIYLVSNLESGVPAGFRGRGSRTDFTLTIDPVEADDAATYYCQQNNEDPYTFGGGTKLEIKRA
modifications: GSM-192 Heavy Chain Sequence; GSM-192 Light Chain Sequence
- binding to activated form of MMP-7 [1]: bound to the catalytic domain
- binding to activated form of MMP-7 ([1]; listed as anti MMP-7 Ab): selective binding
- binding to total serum proteins ([2]; listed as Anti MMP-7mAb): does not bind
- binding to total serum proteins ([2]; listed as anti MMP-7 mAb): did not show any binding
- binding to zymogen form of MMP-7 (MMP-7 zymogen): not the zymogen form; also recorded: did not bind
- binding to a panel of other MMPs (panel of other MMPs): did not bind effectively
